This test addresses APOBEC3G (human), Q9HC16. As to the kind of experiment: AUC. As to conditions: remark: other sources report otherwise.

As a reminder, the stoichiometry N is a count of units in the complex or per binding partner.

B1: APOBEC3G, Q9HC16 1-384 (enzyme)
chain: MKPHFRNTVERMYRDTFSYNFYNRPILSRRNTVWLCYEVKTKGPSRPPLDAKIFRGQVYSELKYHPEMRFFHWFSKWRKLHRDQEYEVTWYISWSPCTKCTRDMATFLAEDPKVTLTIFVARLYYFWDPDYQEALRSLCQKRDGPRATMKIMNYDEFQHCWSKFVYSQRELFEPWNNLPKYYILLHIMLGEILRHSMDPPTFTFNFNNEPWVRGRHETYLCYEVERMHNDTWVLLNQRRGFLCNQAPHKHGFLEGRHAELCFLDVIPFWKLDLDQDYRVTCFTSWSPCFSCAQEMAKFISKNKHVSLCIFTARIYDDQGRCQEGLRTLAEAGAKISIMTYSEFKHCWDTFVDHQGCPFQPWDGLDEHSQDLSGRLRAILQNQEN
Take B1: the stoichiometry N turned out to be 4.

For the origin of these results see paper PMC2783380.
